Target: human α3β2 nicotinic acetylcholine receptor (human) (UniProt P32297)
Sequence of UniProt P32297 (P32297 32-505, chain 1 of 2): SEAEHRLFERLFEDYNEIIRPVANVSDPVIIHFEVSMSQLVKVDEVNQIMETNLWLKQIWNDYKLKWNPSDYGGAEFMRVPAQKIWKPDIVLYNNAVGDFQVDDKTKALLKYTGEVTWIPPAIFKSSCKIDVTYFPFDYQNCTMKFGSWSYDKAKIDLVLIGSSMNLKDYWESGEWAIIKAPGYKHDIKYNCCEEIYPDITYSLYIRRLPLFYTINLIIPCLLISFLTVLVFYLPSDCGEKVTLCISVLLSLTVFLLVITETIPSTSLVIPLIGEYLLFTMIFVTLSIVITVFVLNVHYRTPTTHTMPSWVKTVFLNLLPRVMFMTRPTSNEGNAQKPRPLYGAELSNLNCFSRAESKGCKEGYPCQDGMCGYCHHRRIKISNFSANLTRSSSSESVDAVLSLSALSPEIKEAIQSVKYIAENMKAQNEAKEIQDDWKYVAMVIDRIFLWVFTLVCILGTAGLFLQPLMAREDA
Sequence of UniProt P32297 (P17787 26-502, chain 2 of 2, further chain): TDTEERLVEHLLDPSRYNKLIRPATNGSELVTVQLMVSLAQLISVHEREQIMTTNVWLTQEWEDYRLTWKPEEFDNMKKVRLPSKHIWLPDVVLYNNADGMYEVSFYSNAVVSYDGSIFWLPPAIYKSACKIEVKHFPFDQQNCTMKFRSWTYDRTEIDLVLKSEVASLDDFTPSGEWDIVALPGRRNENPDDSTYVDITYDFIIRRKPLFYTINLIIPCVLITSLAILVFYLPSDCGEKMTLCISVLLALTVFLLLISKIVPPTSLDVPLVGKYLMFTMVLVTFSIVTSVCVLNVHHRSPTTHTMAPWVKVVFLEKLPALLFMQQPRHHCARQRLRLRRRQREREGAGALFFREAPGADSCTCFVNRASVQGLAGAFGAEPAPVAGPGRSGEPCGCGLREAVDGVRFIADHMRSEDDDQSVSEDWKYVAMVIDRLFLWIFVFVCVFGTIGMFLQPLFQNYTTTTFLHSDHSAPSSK

drysdalin (natural protein)
inhibition of ACh‐evoked peak current at 30 nmol/L drysdalin, Xenopus oocytes: 13%
